From patent publication US20140186370A1

Molecular target: vaccinia virus B5R 6xHis protein (baculovirus-expressed soluble extracellular domain) (vaccinia virus)

Hum IgG1 isotype control (antibody)
% inhibition: 0%
